Residue numbers refer to the chain shown, from its start.
Tests used:
ZO-1 = ZO-1 localization by immunostaining in blood-brain barrier simulation system; assay type: cell-based; conditions: monkey BBB kit, 12 hours after addition, FIG. 14
[1] = tested on: blood-brain barrier simulation system; assay: Material permeability of blood-brain barrier simulation system (monkey BBB kit); assay type: cell-based; conditions: 12 hours after addition, FIG. 13
hCLDN-5 [2] = assay: Epitope analysis by hCLDN-5/hCLDN-1 chimeric CLDN (FACS), loop assignment; assay type: binding, human; conditions: antibody concentration 5 μg/mL, hCLDN-5/hCLDN-1 chimeras
1-1-5 = target: T1, 1-1-5 (Homo sapiens, UniProt O00501, A34S/A72N/D37G/E76T/F35Y/G26A/H38D/H61Q/K48E/L36A/M29Q/M62I/Q31R/T33Y/T45A/T46M/T75S/V32I/V56S/V70L/W47Y/Y67F); assay: Epitope analysis FACS, chimeric protein 1-1-5; assay type: binding; conditions: antibody concentration 5 μg/mL; first extracellular loop substituted with hCLDN-1
T1 construct: expressed in transfected cells; host or cells: retrovirus-infected cells (pCX4pur)
T1 sequence (O00501 1-218 G26A/M29Q/Q31R/V32I/T33Y/A34S/F35Y/L36A/D37G/H38D/T45A/T46M/W47Y/K48E/V56S/H61Q/M62I/Y67F/V70L/A72N/T75S/E76T): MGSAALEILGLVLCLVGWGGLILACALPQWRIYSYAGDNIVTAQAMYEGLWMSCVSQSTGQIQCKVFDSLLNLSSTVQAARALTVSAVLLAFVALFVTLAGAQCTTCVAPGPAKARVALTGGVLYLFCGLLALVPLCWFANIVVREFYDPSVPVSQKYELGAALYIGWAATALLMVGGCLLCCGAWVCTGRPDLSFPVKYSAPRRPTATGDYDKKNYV

MDCKII/hCLDN-5 = assay: TEER of CLDN-5 compulsory expression system, MDCKII/hCLDN-5; assay type: cell-based, human; conditions: MDCKII/hCLDN-5, FIG. 7B
hCLDN-5 [3] = assay: Epitope analysis by hCLDN-5/mCLDN-5 chimeric CLDN (D68E, T75A, S151T, TM; FACS); assay type: binding, human; conditions: antibody concentration 5 μg/mL, mutants D68E
mCLDN-5 [4] = target: T2, mCLDN-5 (Mus musculus, UniProt O54942); assay: Evaluation of CLDN specificity by FACS, mCLDN-5-expressing cells; assay type: binding; conditions: hybridoma culture supernatant as primary antibody, FIG. 1B
T2 construct: expressed in transfected cells; host or cells: retrovirus-infected cells
T2 sequence (O54942 1-218): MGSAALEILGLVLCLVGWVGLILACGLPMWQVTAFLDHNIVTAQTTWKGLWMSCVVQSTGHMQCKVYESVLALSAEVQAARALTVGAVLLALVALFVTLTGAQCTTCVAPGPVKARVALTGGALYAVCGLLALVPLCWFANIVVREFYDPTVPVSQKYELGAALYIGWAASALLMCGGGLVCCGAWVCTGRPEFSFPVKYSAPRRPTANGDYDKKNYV

hCLDN-5 [5] = target: T3, hCLDN-5 (Homo sapiens, UniProt O00501); assay: Western blotting operability, HT-1080/hCLDN-5 lysate; assay type: binding; conditions: SDS-PAGE under reducing condition, antibody concentration 10 μg/mL, FIG. 5
T3 construct: expressed in transfected cells; host or cells: HT-1080 human fibrosarcoma cells infected with a pCX4pur-derived retrovirus (HT-1080/hCLDN-5)
T3 sequence (O00501 1-218): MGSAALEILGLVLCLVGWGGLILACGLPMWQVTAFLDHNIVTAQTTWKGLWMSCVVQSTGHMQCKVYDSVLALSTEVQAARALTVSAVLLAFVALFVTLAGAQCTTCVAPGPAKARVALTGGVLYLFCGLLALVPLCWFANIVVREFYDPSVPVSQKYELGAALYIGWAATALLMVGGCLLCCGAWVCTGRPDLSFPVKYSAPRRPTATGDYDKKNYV
Description: FIG. 5 illustrates western blotting images showing the CLDN-5 primary structure recognizability of the anti-CLDN-5 antibodies obtained in Example 3-6). The primary antibodies used are shown at the top of the images, and the used cells are shown under the primary antibodies. The names of proteins represented by bands are shown on the left side of the images.
Cell lysates were prepared from HT-1080/mock and HT-1080/hCLDN-5 obtained in Example 1-2), and the lysates were separated by SDS-PAGE under a reducing condition. By using the antibodies (antibody concentration: 10 μg/mL) obtained in Example 1 as primary antibodies, western blotting was performed according to the conventional method. As primary antibodies, commercial monoclonal antibodies (4C3C2, Invitrogen, 35-2500) recognizing the C-terminal of CLDN-5 were used as positive control, and β actin antibodies (Sigma Aldrich, A1978) were used as loading control. The results are illustrated in FIG. 5.

mCLDN-5 [6] = target: T2, mCLDN-5; assay: Cross-species activity FACS, mCLDN-5-expressing cells; assay type: binding; conditions: antibody concentration 5 μg/mL, FIG. 2
CLDN-5 = CLDN-5 localization by immunostaining in blood-brain barrier simulation system; assay type: cell-based; conditions: monkey BBB kit, 12 hours after addition, FIG. 14
5-5-1 = target: T4, 5-5-1 (Homo sapiens, UniProt O00501, A162Q/K157R/L160F/Q156A/S151M/S155N/V152T); assay: Epitope analysis FACS, chimeric protein 5-5-1; assay type: binding; conditions: antibody concentration 5 μg/mL; second extracellular loop substituted with hCLDN-1
T4 construct: expressed in transfected cells; host or cells: retrovirus-infected cells (pCX4pur)
T4 sequence (O00501 1-218 S151M/V152T/S155N/Q156A/K157R/L160F/A162Q): T3 sequence (O00501 1-218) with S151M, V152T, S155N, Q156A, K157R, L160F, A162Q

recognition of 1-1-5 (1-1-5): capable of recognizing
binding capacity to mCLDN-5 (mCLDN-5 [4]): extremely low
recognition of linear peptide (western blotting operability) (hCLDN-5 [5]): strongly recognized
binding capacity to mCLDN-5 (mCLDN-5 [6]): extremely low
recognition of 5-5-1 (5-5-1): incapable of recognizing
B1: R9: rat anti-CLDN-5 monoclonal antibody, IgG2b/K; VH SEQ ID NO: 17, VL SEQ ID NO: 18; example of antibody I (antibody, V domains shown)
VH: QVTLKESGPGILQPSHTLSLTCSFSGFSLNTYGVGVNWIRQPSGKGLEWLASIWWHGKTYINPSLKNRLTVSKDPSNNQAFLEVTNVDPADTATYYCAHARAQLLDYWGQGVMVTVSS
VL: DIVMTQTPSSQAVSAGEKVTMSCKSSQSLLYSGDQKNYLAWYQQKPGQSPKLLIYLTSTRESGVPDRFIGSGSGTDFTLTISSVQAEDLADYYCQQHYSYPLTFGSGTKLEI
modifications: R9 VH; R9 VL
localization properties of ZO-1 (ZO-1): did not change
4 kDa FITC-dextran permeability of the blood-brain barrier simulation system [1]: exhibited an activity of improving
extracellular loop of CLDN-5 recognized (hCLDN-5 [2]): second extracellular loop
reduction in TEER (MDCKII/hCLDN-5): greatly reducing TEER
portion of hCLDN-5 recognized (hCLDN-5 [3]): domain around the 151st amino acid from the N-terminal present in the second extracellular loop
localization properties of CLDN-5 in the intercellular space (CLDN-5): reduced

Source: patent US11053313B2, “Anti-CLDN-5 antibody, and drug containing said antibody” (OSAKA UNIVERSITY, priority 2017, dated 2021)
